{"source": "patent US20190142956A1", "molecules": {"B1": {"name": "20 kDa PEG-FUD (peptide)", "peptide": "{mPEG 20 kDa}-KDQSPLAGESGETEYITEVYGNQQNPVDIDKKLPNETGFSGNMVETEDT", "modifications": "not fully specified"}, "B2": {"name": "functional upstream domain (FUD) peptide (peptide)", "peptide": "KDQSPLAGESGETEYITEVYGNQQNPVDIDKKLPNETGFSGNMVETEDT"}}, "key": {"[1]": {"biological_target": "human plasma fibronectin (human) (UniProt P02751)", "assay": "cell-based or functional assay"}, "[2]": {"biological_target": "human plasma fibronectin (human) (UniProt P02751)", "assay": "ITC, peptide injected into human plasma FN, PBS pH 7.4, 25 C, triplicate", "parameters": "ΔS: unit not given here"}, "[3]": {"biological_target": "EDA-containing cellular fibronectin made by human fibroblasts and human proximal tubular epithelial cells (human), P02751", "sequence (P02751 32-2477)": "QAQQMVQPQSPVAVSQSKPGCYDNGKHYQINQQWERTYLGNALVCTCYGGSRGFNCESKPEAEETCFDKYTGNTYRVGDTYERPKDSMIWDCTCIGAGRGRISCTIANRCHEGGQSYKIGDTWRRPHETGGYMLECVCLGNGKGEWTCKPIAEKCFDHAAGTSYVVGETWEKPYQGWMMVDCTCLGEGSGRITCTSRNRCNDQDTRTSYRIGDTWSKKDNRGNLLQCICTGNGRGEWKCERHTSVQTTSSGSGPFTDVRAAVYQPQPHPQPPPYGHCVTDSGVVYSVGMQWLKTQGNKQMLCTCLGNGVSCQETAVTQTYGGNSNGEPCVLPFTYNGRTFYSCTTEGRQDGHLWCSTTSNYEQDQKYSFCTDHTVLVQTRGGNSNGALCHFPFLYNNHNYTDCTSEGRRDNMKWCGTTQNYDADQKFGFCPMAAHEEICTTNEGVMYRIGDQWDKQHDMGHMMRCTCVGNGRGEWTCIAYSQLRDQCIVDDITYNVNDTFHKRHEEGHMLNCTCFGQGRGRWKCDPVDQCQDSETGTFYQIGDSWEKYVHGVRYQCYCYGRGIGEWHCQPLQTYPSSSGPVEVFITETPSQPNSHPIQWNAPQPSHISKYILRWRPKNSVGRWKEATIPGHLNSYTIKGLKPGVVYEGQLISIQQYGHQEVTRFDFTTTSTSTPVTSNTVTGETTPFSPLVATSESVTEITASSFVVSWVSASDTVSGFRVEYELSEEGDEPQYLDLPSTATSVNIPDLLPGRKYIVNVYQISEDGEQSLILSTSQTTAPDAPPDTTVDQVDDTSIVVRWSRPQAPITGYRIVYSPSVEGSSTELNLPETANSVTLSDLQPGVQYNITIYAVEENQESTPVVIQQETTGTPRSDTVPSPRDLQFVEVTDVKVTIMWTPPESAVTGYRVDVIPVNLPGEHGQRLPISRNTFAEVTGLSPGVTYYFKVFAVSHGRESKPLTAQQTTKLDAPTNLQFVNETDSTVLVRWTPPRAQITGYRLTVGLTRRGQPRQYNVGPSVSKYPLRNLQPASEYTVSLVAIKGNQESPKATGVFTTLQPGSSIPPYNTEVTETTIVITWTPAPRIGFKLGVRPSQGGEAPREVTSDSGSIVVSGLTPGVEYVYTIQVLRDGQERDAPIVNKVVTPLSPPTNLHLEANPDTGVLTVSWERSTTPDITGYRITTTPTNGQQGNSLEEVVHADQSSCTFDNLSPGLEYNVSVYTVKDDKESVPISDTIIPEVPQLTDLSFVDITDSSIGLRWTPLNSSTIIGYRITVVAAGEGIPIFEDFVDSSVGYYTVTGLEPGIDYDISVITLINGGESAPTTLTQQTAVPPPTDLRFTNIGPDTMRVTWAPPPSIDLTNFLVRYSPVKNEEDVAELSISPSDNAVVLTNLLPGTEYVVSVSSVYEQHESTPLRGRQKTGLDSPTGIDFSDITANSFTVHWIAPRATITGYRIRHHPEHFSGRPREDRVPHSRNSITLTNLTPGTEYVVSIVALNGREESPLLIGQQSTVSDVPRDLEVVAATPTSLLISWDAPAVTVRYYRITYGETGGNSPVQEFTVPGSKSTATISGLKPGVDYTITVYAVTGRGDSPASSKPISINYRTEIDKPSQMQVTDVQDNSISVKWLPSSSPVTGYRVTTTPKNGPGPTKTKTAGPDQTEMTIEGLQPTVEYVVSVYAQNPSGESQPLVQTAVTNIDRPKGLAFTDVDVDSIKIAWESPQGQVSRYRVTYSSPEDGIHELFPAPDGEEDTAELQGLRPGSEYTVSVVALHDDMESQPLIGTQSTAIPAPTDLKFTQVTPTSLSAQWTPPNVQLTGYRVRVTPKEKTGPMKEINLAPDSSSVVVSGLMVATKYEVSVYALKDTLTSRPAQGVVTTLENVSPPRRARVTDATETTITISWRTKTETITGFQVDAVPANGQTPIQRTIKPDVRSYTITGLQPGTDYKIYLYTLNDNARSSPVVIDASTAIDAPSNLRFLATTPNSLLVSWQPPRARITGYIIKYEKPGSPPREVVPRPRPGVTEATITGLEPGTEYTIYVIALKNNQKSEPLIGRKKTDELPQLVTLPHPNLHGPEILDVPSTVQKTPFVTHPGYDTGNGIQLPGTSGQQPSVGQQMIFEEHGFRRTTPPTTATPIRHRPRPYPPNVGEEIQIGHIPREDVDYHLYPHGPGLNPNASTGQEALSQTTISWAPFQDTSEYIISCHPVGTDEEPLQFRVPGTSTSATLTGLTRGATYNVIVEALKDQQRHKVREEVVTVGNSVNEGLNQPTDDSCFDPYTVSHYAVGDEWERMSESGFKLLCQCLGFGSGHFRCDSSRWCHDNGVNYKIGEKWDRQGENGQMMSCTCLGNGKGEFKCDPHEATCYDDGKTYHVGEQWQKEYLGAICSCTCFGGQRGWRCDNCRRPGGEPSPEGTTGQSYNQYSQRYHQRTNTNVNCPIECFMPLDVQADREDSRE", "assay": "cell-based or functional assay"}}, "note": "Where no end group is shown, it is not given here.", "data": [{"molecule": "20 kDa PEG-FUD (peptide)", "values": [{"measurement": "IC50, inhibition of A488-FN fibrillogenesis", "setting": "[1]", "value": "25 to 30", "unit": "nM"}, {"measurement": "percent inhibition of A488-FN fibrillogenesis, doses up to 20 µM", "setting": "[1]", "value": 60, "unit": "%"}, {"measurement": "Kd", "setting": "[2]", "value": 10, "unit": "nM"}, {"measurement": "n", "setting": "[2]", "value": 1.63}, {"measurement": "ΔG", "setting": "[2]", "value": -10, "unit": "kcal/mol"}, {"measurement": "ΔH", "setting": "[2]", "value": -30, "unit": "kcal/mol"}, {"measurement": "ΔS", "setting": "[2]", "value": -66}]}, {"molecule": "10 kDa PEG-FUD (peptide)", "values": [{"measurement": "Kd", "setting": "[2]", "value": 4.6, "unit": "nM"}, {"measurement": "n", "setting": "[2]", "value": 1.55}, {"measurement": "ΔG", "setting": "[2]", "value": -11.4, "unit": "kcal/mol"}, {"measurement": "ΔH", "setting": "[2]", "value": -34, "unit": "kcal/mol"}, {"measurement": "ΔS", "setting": "[2]", "value": -74}]}, {"molecule": "40 kDa PEG-FUD (peptide)", "values": [{"measurement": "Kd", "setting": "[2]", "value": 14.7, "unit": "nM"}, {"measurement": "n", "setting": "[2]", "value": 1.43}, {"measurement": "ΔG", "setting": "[2]", "value": -10.9, "unit": "kcal/mol"}, {"measurement": "ΔH", "setting": "[2]", "value": -32.5, "unit": "kcal/mol"}, {"measurement": "ΔS", "setting": "[2]", "value": -73}]}, {"molecule": "functional upstream domain (FUD) peptide", "values": [{"measurement": "IC50, inhibition of A488-FN fibrillogenesis", "setting": "[1]", "value": "25 to 30", "unit": "nM"}, {"measurement": "percent inhibition of A488-FN fibrillogenesis, doses up to 20 µM", "setting": "[1]", "value": 60, "unit": "%"}, {"measurement": "Kd", "setting": "[2]", "value": 6, "unit": "nM"}, {"measurement": "n", "setting": "[2]", "value": 1.59}, {"measurement": "ΔG", "setting": "[2]", "value": -11.4, "unit": "kcal/mol"}, {"measurement": "ΔH", "setting": "[2]", "value": -31, "unit": "kcal/mol"}, {"measurement": "ΔS", "setting": "[2]", "value": -65}]}, {"molecule": "B1", "values": [{"measurement": "IC50, inhibition of endogenous EDA+-fibronectin fibrillogenesis (human fibroblasts and HK-2 cells)", "setting": "[3]", "value": 30, "unit": "nM"}]}, {"molecule": "B2", "values": [{"measurement": "IC50, inhibition of endogenous EDA+-fibronectin fibrillogenesis (human fibroblasts and HK-2 cells)", "setting": "[3]", "value": 30, "unit": "nM"}]}]}
